Laboratory results published in the DeepSol protein solubility set.

assay: soluble on expression in E. coli; label from the status in PepcDB or PDB records

**Q.** For “MSLDMNKPEGFDCPGCAWPDPKHSASFDICENGAKAIAWEVTDKQVNASFFAENTVQSLLTWGDHELEAAGRLTQPLKYDAVSDCYKPLSWQQAFDEIGARLQSYSDPNQVEFYTSGRTSNEAAFLYQLFAREYGSNNFPDCSNMCHEPTSVGLAASIGVGKGTVLLEDFEKCDLVICIGHNPGTNHPRMLTSLRALVKRGAKMIAINPLQERGLERFTAPQNPFEMLTNSETQLASAYYNVRIGGDMALLKGMMRLLIERDDAASAAGRPSLLDDEFIQTHTVGFDELRRDVLNSEWKDIERISGLSQTQIAELADAYAAAERTIICYGMGITQHEHGTQNVQQLVNLLLMKGNIGKPGAGICPLRGHSNVQGDRTVGITEKPSAEFLARLGERYGFTPPHAPGHAAIASMQAICTGQARALICMGGNFALAMPDREASAVPLTQLDLAVHVATKLNRSHLLTARHSYILPVLGRSEIDMQKNGAQAVTVEDSMSMIHASRGVLKPAGVMLKSECAVVAGIAQAALPQSVVAWEYLVEDYDRIRNDIEAVLPEFADYNQRIRHPGGFHLINAAAERRWMTPSGKANFITSKGLLEDPSSAFNSKLVMATVRSHDQYNTTIYGMDDRYRGVFGQRDVVFMSAKQAKICRVKNGERVNLIALTPDGKRSSRRMDRLKVVIYPMADRSLVTYFPESNHMLTLDNHDPLSGIPGYKSIPVELEPSNEGHHHHHH”, which “soluble on expression in E. coli” value is on record?
**A.** soluble

**Q.** With “MKLIILEHYSQASEWAAKYIRNRIIQFNPGPEKYFTLGLPTGSTPLGCYKKLIEYYKNGDLSFKYVKTFNMDEYVGLPRDHPESYHSFMWNNFFKHIDIHPENTHILDGNAVDLQAECDAFEEKIKAAGGIELFVGGIGPDGHIAFNEPGSSLVSRTRVKTLAMDTILANARFFDGELTKVPTMALTVGVGTVMDAREVMILITGAHKAFALYKAIEEGVNHMWTVSAFQQHPRTVFVCDEDATLELKVKTVKYFKGLMLVHNKLVDPLYSIKEKETEKSQSSKKPYSD” as the sequence, how does the “soluble on expression in E. coli” value read?
**A.** soluble

**Q.** Which “soluble on expression in E. coli” value does the source give for “MKKVGKSTFKFENCPIISDCFTIVGKKEGEGPLGLFFDMVVEDEYAGQKSWELAEGKLLNIAISKLIQKSGFTPDEVDLILSGDLLNQLTSSHFAARDLNIPFIGLYGACSTFALSVGLACVFVDGGFAKNIIAATSSHFCSAEKQFRYPLELGCQRPPTAQWTVTGAASFLIKPEDGTQKPKITHFTVGKILDYGIKDSNNMGACMAPAAFDTITTHLEDTKRDFTYYDIIVTGDLGYVGRKLLEELFKKEGKTLSFELLDCGILMFDQKTQDTGAGASGCAASACIFGGYFYKLMLQKTFKRILIVPTGALLSSSTVQLGESIPVIAHALSIEIELEHHHHHH” here?
**A.** not soluble

**Q.** With “VLIAGYLTDWRIMTTAQLRPIAPQKLHFSENLSVWVSDAQCRLVVSQPALDPTLWNTYLQGALRAYSKHGVECTLDLDAISDGSDTQLFFAAIDIGGDVVGGARVIGPLRSADDSHAVVEWAGNPGLSAVRKMINDRAPFGVVEVKSGWVNSDAQRSDAIAAALARALPLSMSLLGVQFVMGTAAAHALDRWRSSGGVIAARIPAAAYPDERYRTKMIWWDRRTLANHAEPKQLSRMLVESRKLLRDVEALSATTAATAGAEQ” as the sequence, how does the “soluble on expression in E. coli” value read?
**A.** not soluble

**Q.** Which “soluble on expression in E. coli” value does the source give for MPVEEKKKGMAIHSSLSLSLSLSLSLSLSLCDSEREG here?
**A.** not soluble

**Q.** For “MSSPRHVFYISDRTGLTAENIGEALLNQFGNLSFKRHTHPFVDTPEKARAVVEKVNRSRQENGQRPIAFVSVVDDEIRRIIKGADAFQINFFETFLGLLEKELNTEATASGQGHHSIGNTKRYDARMEAVNFSLNHDDGVSDKNLQEADVILMGVSRSGKTPTCLYLALQYGIRAANYPLIPDDLESADLPRMVKPYRDKLFGLTIQPERLQAIRQERRPNSTYAKIDTCRSEVADAQSMFRRHGIPFANTTDKSVEELAVHILQACKLKRRF”, which “soluble on expression in E. coli” value is on record?
**A.** not soluble

**Q.** With “MALALTLREYEFSVLLLEARELPEKVDDPRPLALSYGSRLILQRLDIWKNLTQPAPITTIHISNRGHFGHAVLTPDDAGVPALGYVVNYHDLYHSMGRAIRGSNAVYQTNALVTAIRTDLSLAQVAYQQGSTTRQVRARLLVLADGGKLAEQIDGVRYHTYDYQQTAIVANVKVESPRPGTAFERFTLNGPLALLPSGEGYALVWTMPAAAAEKILKLDDRSFLLHLHEQFGDRMGEFTHVGPRSSFPLILKHASTITGHRAVLIGNAAQALHPVAGQGFNLGLRDAWELASEISRIPSGTPGEPGSTRMLAAYSRRRQSDKRISRLFTDSLVKLFTADLPLVQTCSGMGLAALDNLPPARRLIAHQMIFGTKGWFIGLEHHHHHH” as the sequence, how does the “soluble on expression in E. coli” value read?
**A.** soluble

**Q.** With “MQLEYPLTNHMKGNIVLTQEKTAIAYYRVRSETVMLTDVEKKLKTKRKVARALNRLKANDGFEINLLPVNADIRGKMGAMRSLIDSNNYEVGVDKLMKTAMVLEQEMGMVYEYTWIIGVPLIKKDLAVDLKETVTNSISNVSEKFVKGLGFDVELAEYWEKDYREQELEVYQNLSELLIERLTEDELYYYQAYQFLKNIPHERQDVLSSQNLDNLMATKIKPLFGGGLHLNCDYGESYISYLPMGDVGVFLDGNHFLEVVQKMPFPVEVKIQATFAESKGQLALSGRSSRARTRTKNIMQEAHLAGSKQKRKIVEGQLSLDDLDQKIDDGVDIIDWKAVIVVSGSTKKQMRARKKYLINRFDSLDIPLIKATFDNPYLFQSTLFGNFLRMQTSRWQHTSTIESFAELNFFTSLHAGTKLGFYLGRVDTTLEEKEDRKSIISSSKNLIFMNMLLANKEGVDGKKTNNPHWALTGDTGNGKSVTAKTLFMQMALLKDRVLYIDPKKEMRKQFMYTINDPEYQKKYPLDVDFVKSFNFVTLDVRDTKNHGVLDPIVLFDETEAIATTKAMLTNIYEGTWNLKQKTEINEAIAKVVLERKEGKKVGFWHVIERLVESEISDVKDMGRFILSTVKGSVLELAFSHGDVEGLSFDKKVTILEIEDLDLPTDKNENLDENKRLSVTLMFALGTFCSKFGSRNPKEETVTFFDESWIFQSSPEGKAILKSMKRIGRSFNNFLVLITQSTNDLDDSEDGTGFGTVICFDEVQNREGVLKYLNLPVNEINMKWVSNMVQGQCLMKDMFGQTNRIVVHVIFEEWLELFKTVDDTEASKMENRFVA” as the sequence, how does the “soluble on expression in E. coli” value read?
**A.** not soluble

**Q.** With “KSTVEKSTVGQKVAIVREDTGTIAELAEKALGNMVDIVYAGSDLKEAEEAVKKEKAPAIIVIPKGFSQSLESGEKARLEIVWYLRGTGLSEAVSTGTISSLIESLKVQLASFLLNDPKKAQLLFDPLEIVQHTYLRGSLFKNHSPEAIMNVFYSQN” as the sequence, how does the “soluble on expression in E. coli” value read?
**A.** soluble

**Q.** For “GHHHHHHHHHHSSGHIEGRHMRVLFVSSPGIGHLFPLIQLAWGFRTAGHDVLIAVAEHADRAAAAGLEVVDVAPDYSAVKVFEQVAKDNPRFAETVATRPAIDLEEWGVQIAAVNRPLVDGTMALVDDYRPDLVVYEQGATVGLLAADRAGVPAVQRNQSAWRTRGMHRSIASFLTDLMDKHQVSLPEPVATIESFPPSLLLEAEPEGWFMRWVPYGGGAVLGDRLPPVPARPEVAITMGTIELQAFGIGAVEPIIAAAGEVDADFVLALGDLDISPLGTLPRNVRAVGWTPLHTLLRTCTAVVHHGGGGTVMTAIDAGIPQLLAPDPRDQFQHTAREAVSRRGIGLVSTSDKVDADLLRRLIGDESLRTAAREVREEMVALPTPAETVRRIVERISG”, which “soluble on expression in E. coli” value is on record?
**A.** soluble

**Q.** Which “soluble on expression in E. coli” value does the source give for “MPYYVYLLACGKHGTLYLGVTNDLVRRVHEHRSKATPGFSEHYGVGRLVWFEIYHDAITAITREKQLKKWRRDWKVRLIENQNPDWVDLYPGICR” here?
**A.** not soluble

**Q.** With “RKQDTQRALHLLEEYRSKLSQTEDRQLRSSIERVISIFQSNLFQALIDIQEFYEVTLLDN” as the sequence, how does the “soluble on expression in E. coli” value read?
**A.** soluble

**Q.** Which “soluble on expression in E. coli” value does the source give for “MTSLIGTHSGKFHCDEAFACFMLKQLPQFKDHSILRTRDAAQLEKCDIIVDVGGIFDHSKQRYDHHQRGFTDTMRTLEKLNFDTKLSSAGLVYAHYGREVINQILGGNVSSSMIDLFYHRLYEQFVESIDAIDNGISQYDGVPRYHSSGNLSSRTGQFNSHWNEPENDADERFQQAMQFIGEEFSRSVKYLANVWWPAREIIEAAVDKRFEIDASGRIILIENGGCPWKEHFFDIEVEKNIADDNITYILFSDSTNASWRVQAIPVDKMSSFENRMPLPAAWRGLRDDDLSKESGIPGGVFVHISGFIGGNLTREGAIAMARKALEIGEENPVKKAKLGN” here?
**A.** soluble

**Q.** With “MGSDKIHHHHHHMTYKVLHVGAGGFGERWCDTFLPSNNSDGTIEVVGLVDIDARALEIGRKHLGLKAKQCFTSAAQAFKAVDADFCTIVIPPALHEGIVDLALERGMHILSEKPIAATMEASVRIADKVRVAGRKMAVTMSHRFDQDKSTLRALVSDEALGRVNTVSCRFAGDYRAYDSWGRFRHEMIHPMLIEGAVHHLDIMADLAGAPCTSIYARSWKPEWAEYKGETDVMVLMDFANGAHGVYEGSSAQATGLNDWTFEYVRVEAASGTAILDHREVEVFHRDPKRIYQKNRHGKGQQVSLLGGKKWKNSLLIEQFCHWLDGGPPMATNVEDNLQSVALIFSAIESARLGQPVKVQEFLQSFRKSASIETQ” as the sequence, how does the “soluble on expression in E. coli” value read?
**A.** not soluble

**Q.** With “MGGSHHHHHHGMASALETNYLKRCFGNCLAQALAEVAKVRPSDPIEYLAHWLYHYRKTAKAKEENREKKIHLQEEYDSSLKEMEMTEMLKQEEYQIQQNCEKCHKELTSETVSTKKTIFMQEDTNPLEKEALKQEFLPGTSSLIPGMPQQVPPSESAGQIDQNFKMPQEINYKEAFQHEVAHEMPPGSKSPF” as the sequence, how does the “soluble on expression in E. coli” value read?
**A.** not soluble

**Q.** With “MAHHHHHHSLCPCPHSQAQGETDGEAEWHNAALDFTHAMSYGDYLKLDKVLDAQFPLSPDHNEMLFIIQHQTSELWMKLMLHELRAAREHVKSGKLGPALKMLARVSRIFDQLVHAWAVLATMTPTEYNTIRPYLGQSSGFQSYQYREIEFILGNKNATLLKPHAHRAELLAALEQALHTPSLYDEAIRLMAAQGLPVSQERLARDAAAGTCYEASVEAAWRQVYQAPERYWDLYQLAEKLIDLEDSFRQWRFRHVTTVERIIGFKPGTGGTEGVGYLRSMLDTILFPELWRLRSNEG” as the sequence, how does the “soluble on expression in E. coli” value read?
**A.** soluble

**Q.** With “MAAEFVRKFQSFSESDKQWRAREEFIIRNLNRFEDESEIDQLLALSMVWANHVFMGCRYSNELLEKVCGMAEGIVVEDAPHFTTRDEIMKQRNQ” as the sequence, how does the “soluble on expression in E. coli” value read?
**A.** soluble

**Q.** With “MGSDKIHHHHHHMNAVLQKKGGVGIIILARLDSTRLPGKALRTAAGKEMLGYVVERARMVRGVSEIVLATTDRTVDDRLEEYAAACDLAVFRGSDVDVAGRVAACVRWRGWDAFVRINGDSPFIDPQTISSAVNLLYGLGGVSAAGLSDSHAQRGNMHAECASLPLVACGSVTLAGYAGHDATELPDMVTNVLRRTFPKGQSVEVCRASAFLAGYAAMHLPEHLEHVTKYFYDTRSIRIMNMESGDPSLGEIQLAVDTEEDFALFERMLARMDRPHTAYAAHEIIELYRECLHG” as the sequence, how does the “soluble on expression in E. coli” value read?
**A.** not soluble

**Q.** For “MSLNTKLLILDDDIDILQMLKTVFIGEEMDIILESESEQALRFITTERPNVAIVDINLPRKSGLQVLQEAKKIDPGLSVIMTTGNKTTQNAIEAMKYGAYDYVTKPFDMNKLKSAVHKALECNLLSRKVRYTKDTKQLSEDEGHHHHHH”, which “soluble on expression in E. coli” value is on record?
**A.** not soluble

**Q.** With “MGRIYLKKAKSEEDLLKRGRPFTVEVDELKIPFCVSPVTNTFDNKKKVFLTFLGPVKQFHEAIHLCITSLYRPTPYNKYELTTNVDDLTCTPDIKNMKESYLATIKSESLNASTIDNFLSKKTSIEKLTLGMKVLDNFQEDSAIFRMKYFWFTYSLEHAPIVLSKFQGTHLWMTDANIKNEDIISFLNTWQNSECDRKIFEIKVSEGMNPLNPDIVYEDIDVSDWDPAERPKEFNFVSTFFPENFNKVYDCSTWMDIKRSGDGKIASICITSNAFKFLVWD” as the sequence, how does the “soluble on expression in E. coli” value read?
**A.** not soluble

**Q.** Which “soluble on expression in E. coli” value does the source give for “MTGSTETRQKEVKEPQVDVSDDSDNEAVEQELTEEQRRVAEAAGLGDHIDKQAKQSRSEKKARKLFSKLGLKQVTGVSRVCIRKSKNILFVINKPDVFKSPGSDTYIIFGEAKIEDLTQHAQMSAIENLKPTREAPQLKTVEEDENEDVEEDSTGIEEKDIELVISQANTTRNKAIRALKEADNDIVNAIMSLTM” here?
**A.** soluble

**Q.** For “MSETLIIRFNVGGTPMATLKTTFPVDSIFHKWFVSRTKASPFTSDRDGAYFVDRDPFSFGVVLNYFRLRKAGQLWEACLPKDPDRLAMLTQEADFFLLPQLRDQAICMLQLCSNKNDSNYINEMLAKSTSCPQGFDKKEEEDEEDF”, which “soluble on expression in E. coli” value is on record?
**A.** not soluble
